# Measurements from patent publication US20140363428A1 (Chugai, published 2014).
# Target: T1, soluble human FcRn (heterodimer of FcRn alpha chain and beta2-microglobulin) (human, UniProt P55899 24-297; P61769 21-119)
# T1 construct: Expressed in HEK293H and purified on IgG Sepharose; also called hFcRn
# Test: SPR Biacore T100, antibody captured via protein L, hFcRn analyte, pH 7.0, 25 C;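 note: KD derived from kinetic ka and kd fits of sensorgrams, CM4 sensor chip, sodium phosphate NaCl Tween20 running buffer, buffer-only injection used as reference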
# Protocol: An appropriate amount of protein L (ACTIGEN) was immobilized onto Sensor chip CM4 (GE Healthcare) by the amino coupling method, and the chip was allowed to capture an antibody of interest. Then, diluted FcRn solutions and running buffer (as a reference solution) were injected to allow human FcRn to interact with the antibody captured on the sensor chip. The running buffer used comprised 50 mmol/l sodium phosphate, 150 mmol/l NaCl, and 0.05% (w/v) Tween20 (pH 7.0). FcRn was diluted using each buffer. The chip was regenerated using 10 mmol/l glycine-HCl (pH 1.5). Assays were carried out exclusively at 25 degrees C. The association rate constant ka (1/Ms) and dissociation rate constant kd (1/s), both of which are kinetic parameters, were calculated based on the sensorgrams obtained in the assays, and KD (M) of each antibody for human FcRn was determined from these values. Each parameter was calculated using Biacore T100 Evaluation Software (GE Healthcare).
row,Kd,Binder
1,13 nM,"IgG1-F1154 (antibody, VH3-IgG1 with Fc substitutions (EU numbering) + L(WT)-CK) heavy: QVQLQESGPGLVKPSETLSLTCAVSGHSISHDHAWSWVRQPPGEGLEWIGFISYSGITNYNPSLQGRVTISRDNSKNTLYLQMNSLRAEDTAVYYCARSLARTTAMDYWGEGTLVTVSSASTKGPSVFPLAPSSKSTSGGTAALGCLVKDYFPEPVTVSWNSGALTSGVHTFPAVLQSSGLYSLSSVVTVPSSSLGTQTYICNVNHKPSNTKVDKKVEPKSCDKTHTCPPCPAPELRGGPKVFLFPPKPKDVLYISRTPEVTCVVVDVSHEDPEVKFNWYVDGVEVHNAKTKPREEQYNSTYRVVSVLQPLHADWLNGKEYKCKVSNKALPAPIEKTISKAKGQPREPQVYTLPPSRDELTKNQVSLTCLVKGFYPSDIAVEWESNGQPENNYKTTPPVLDSDGSFFLYSKLTVDKSRWQQGNVFNCSVMHEALHYHVTQKSLSLSP light: not shown"
2,240 nM,"IgG1-F1158 (antibody, VH3-IgG1 with Fc substitutions (EU numbering) + L(WT)-CK) heavy: QVQLQESGPGLVKPSETLSLTCAVSGHSISHDHAWSWVRQPPGEGLEWIGFISYSGITNYNPSLQGRVTISRDNSKNTLYLQMNSLRAEDTAVYYCARSLARTTAMDYWGEGTLVTVSSASTKGPSVFPLAPSSKSTSGGTAALGCLVKDYFPEPVTVSWNSGALTSGVHTFPAVLQSSGLYSLSSVVTVPSSSLGTQTYICNVNHKPSNTKVDKKVEPKSCDKTHTCPPCPAPELRGGPKVFLFPPKPKDTLYISRTPEVTCVVVDVSHEDPEVKFNWYVDGVEVHNAKTKPREEQYNSTYRVVSVLTVLHQDWLNGKEYKCKVSNKALPAPIEKTISKAKGQPREPQVYTLPPSRDELTKNQVSLTCLVKGFYPSDIAVEWESNGQPENNYKTTPPVLDSDGSFFLYSKLTVDKSRWQQGNVFSCSVMHEALHYHYTRKELSLSP light: not shown"
3,210 nM,"IgG1-F1157 (antibody, VH3-IgG1 with Fc substitutions (EU numbering) + L(WT)-CK) heavy: QVQLQESGPGLVKPSETLSLTCAVSGHSISHDHAWSWVRQPPGEGLEWIGFISYSGITNYNPSLQGRVTISRDNSKNTLYLQMNSLRAEDTAVYYCARSLARTTAMDYWGEGTLVTVSSASTKGPSVFPLAPSSKSTSGGTAALGCLVKDYFPEPVTVSWNSGALTSGVHTFPAVLQSSGLYSLSSVVTVPSSSLGTQTYICNVNHKPSNTKVDKKVEPKSCDKTHTCPPCPAPELLGGPSVFLFPPKPKDTLYISRTPEVTCVVVDVSHEDPEVKFNWYVDGVEVHNAKTKPREEQYNSTYRVVSVLTVLHQDWLNGKEYKCKVSNKALPAPIEKTISKAKGQPREPQVYTLPPSRDELTKNQVSLTCLVKGFYPSDIAVEWESNGQPENNYKTTPPVLDSDGSFFLYSKLTVDKSRWQQGNVFSCSVMHEALHYHYTRKELSLSP light: not shown"

# Target: T2, soluble human FcRn (human, UniProt P55899 24-297; P61769 21-119)
# T2 construct: Heterodimer of alpha chain and beta2-microglobulin; also called hFcRn
# Test: SPR (Biacore), pH 7.0
row,Binder,Kd
1,IgG1-F1138 (antibody) heavy: QVQLQESGPGLVKPSETLSLTCAVSGHSISHDHAWSWVRQPPGEGLEWIGFISYSGITNYNPSLQGRVTISRDNSKNTLYLQMNSLRAEDTAVYYCARSLARTTAMDYWGEGTLVTVSSASTKGPSVFPLAPSSKSTSGGTAALGCLVKDYFPEPVTVSWNSGALTSGVHTFPAVLQSSGLYSLSSVVTVPSSSLGTQTYICNVNHKPSNTKVDKKVEPKSCDKTHTCPPCPAPELRGGPKVFLFPPKPKDTLYISRTPEVTCVVVDVSHEDPEVKFNWYVDGVEVHNAKTKPREEQYNSTYRVVSVLTVLHQDWLNGKEYKCKVSNKALPAPIEKTISKAKGQPREPQVYTLPPSRDELTKNQVSLTCLVKGFYPSDIAVEWESNGQPENNYKTTPPVLDSDGSFFLYSKLTVDKSRWQQGNVFSCSVMHEALHYHVTRKELSLSP light: not shown,170 nM
2,IgG1-F1262 (antibody) heavy: QVQLQESGPGLVKPSETLSLTCAVSGHSISHDHAWSWVRQPPGEGLEWIGFISYSGITNYNPSLQGRVTISRDNSKNTLYLQMNSLRAEDTAVYYCARSLARTTAMDYWGEGTLVTVSSASTKGPSVFPLAPSSKSTSGGTAALGCLVKDYFPEPVTVSWNSGALTSGVHTFPAVLQSSGLYSLSSVVTVPSSSLGTQTYICNVNHKPSNTKVDKKVEPKSCDKTHTCPPCPAPELRGGPKVFLFPPKPKDTLYISRTPEVTCVVVDVSHEDPEVKFNWYVDGVEVHNAKTKPREEQYNSTYRVVSVLTVLHQDWLNGKEYKCKVSNKALPAPIEKTISKAKGQPREPQVYTLPPSRDELTKNQVSLTCLVKGFYPSDIAVEWESNGQPENNYKTTPPVLDSDGSFFLYSKLTVDKSRWQQGNVFSCSVMHEALHYHVTKKELSLSP light: not shown,130 nM
3,IgG1-F1261 (antibody) heavy: QVQLQESGPGLVKPSETLSLTCAVSGHSISHDHAWSWVRQPPGEGLEWIGFISYSGITNYNPSLQGRVTISRDNSKNTLYLQMNSLRAEDTAVYYCARSLARTTAMDYWGEGTLVTVSSASTKGPSVFPLAPSSKSTSGGTAALGCLVKDYFPEPVTVSWNSGALTSGVHTFPAVLQSSGLYSLSSVVTVPSSSLGTQTYICNVNHKPSNTKVDKKVEPKSCDKTHTCPPCPAPELRGGPKVFLFPPKPKDTLYISRTPEVTCVVVDVSHEDPEVKFNWYVDGVEVHNAKTKPREEQYNSTYRVVSVLTVLHQDWLNGKEYKCKVSNKALPAPIEKTISKAKGQPREPQVYTLPPSRDELTKNQVSLTCLVKGFYPSDIAVEWESNGQPENNYKTTPPVLDSDGSFFLYSKLTVDKSRWQQGNVFSCSVMHEALHYHVTRKDLSLSP light: not shown,140 nM

# Continued, values first:
row,Kd,Binder
1,200 nM,IgG1-F1305 (antibody) heavy: QVQLQESGPGLVKPSETLSLTCAVSGHSISHDHAWSWVRQPPGEGLEWIGFISYSGITNYNPSLQGRVTISRDNSKNTLYLQMNSLRAEDTAVYYCARSLARTTAMDYWGEGTLVTVSSASTKGPSVFPLAPSSKSTSGGTAALGCLVKDYFPEPVTVSWNSGALTSGVHTFPAVLQSSGLYSLSSVVTVPSSSLGTQTYICNVNHKPSNTKVDKKVEPKSCDKTHTCPPCPAPELRGGPKVFLFPPKPKDTLYISRTPEVTCVVVDVSHEDPEVKFNWYVDGVEVHNAKTKPREEQYNSTYRVVSVLTVLHQDWLNGKEYKCKVSNKALPAPIEKTISKAKGQPREPQVYTLPPSRDELTKNQVSLTCLVKGFYPSDIAVEWESNGQPENNYKTTPPVLDSDGSFFLYSKLTVDKSRWQQGNVFSCSVMHEALDYHVTRKDLSLSP light: not shown
2,130 nM,IgG1-F1329 (antibody) heavy: QVQLQESGPGLVKPSETLSLTCAVSGHSISHDHAWSWVRQPPGEGLEWIGFISYSGITNYNPSLQGRVTISRDNSKNTLYLQMNSLRAEDTAVYYCARSLARTTAMDYWGEGTLVTVSSASTKGPSVFPLAPSSKSTSGGTAALGCLVKDYFPEPVTVSWNSGALTSGVHTFPAVLQSSGLYSLSSVVTVPSSSLGTQTYICNVNHKPSNTKVDKKVEPKSCDKTHTCPPCPAPELRRGPKVFLFPPKPKDTLYITRTPEVTCVVVDVSHEDPEVKFNWYVDGVEVHNAKTKPREEQYNSTYRVVSVLTVLHQDWLNGKEYKCKVSNKALPAPIEKTISKAKGQPREPQVYTLPPSRDELTKNQVSLTCLVKGFYPSDIAVEWESNGQPENNYKTTPPVLDSDGSFFLYSKLTVDKSRWQQGNVFSCSVMHEALHYHVTRKELSLSP light: not shown
3,77 nM,IgG1-F1331 (antibody) heavy: QVQLQESGPGLVKPSETLSLTCAVSGHSISHDHAWSWVRQPPGEGLEWIGFISYSGITNYNPSLQGRVTISRDNSKNTLYLQMNSLRAEDTAVYYCARSLARTTAMDYWGEGTLVTVSSASTKGPSVFPLAPSSKSTSGGTAALGCLVKDYFPEPVTVSWNSGALTSGVHTFPAVLQSSGLYSLSSVVTVPSSSLGTQTYICNVNHKPSNTKVDKKVEPKSCDKTHTCPPCPAPELRRGPKVFLFPPKPKDTLYITREPEVTCVVVDVSHEDPEVKFNWYVDGVEVHNAKTKPREEQYNSTYRVVSVLTVLHQDWLNGKEYKCKVSNKALPAPIEKTISKAKGQPREPQVYTLPPSRDELTKNQVSLTCLVKGFYPSDIAVEWESNGQPENNYKTTPPVLDSDGSFFLYSKLTVDKSRWQQGNVFSCSVMHEALHYHVTRKELSLSP light: not shown
4,190 nM,IgG1-F1306 (antibody) heavy: QVQLQESGPGLVKPSETLSLTCAVSGHSISHDHAWSWVRQPPGEGLEWIGFISYSGITNYNPSLQGRVTISRDNSKNTLYLQMNSLRAEDTAVYYCARSLARTTAMDYWGEGTLVTVSSASTKGPSVFPLAPSSKSTSGGTAALGCLVKDYFPEPVTVSWNSGALTSGVHTFPAVLQSSGLYSLSSVVTVPSSSLGTQTYICNVNHKPSNTKVDKKVEPKSCDKTHTCPPCPAPELRGGPKVFLFPPKPKDTLYISRTPEVTCVVVDVSHEDPEVKFNWYVDGVEVHNAKTKPREEQYNSTYRVVSVLTVLHQDWLNGKEYKCKVSNKALPAPIEKTISKAKGQPREPQVYTLPPSRDELTKNQVSLTCLVKGFYPSDIAVEWESNGQPENNYKTTPPVLDSDGSFFLYSKLTVDKSRWQQGNVFSCSVMHEALDYHVTKKELSLSP light: not shown
5,170 nM,IgG1-F1269 (antibody) heavy: QVQLQESGPGLVKPSETLSLTCAVSGHSISHDHAWSWVRQPPGEGLEWIGFISYSGITNYNPSLQGRVTISRDNSKNTLYLQMNSLRAEDTAVYYCARSLARTTAMDYWGEGTLVTVSSASTKGPSVFPLAPSSKSTSGGTAALGCLVKDYFPEPVTVSWNSGALTSGVHTFPAVLQSSGLYSLSSVVTVPSSSLGTQTYICNVNHKPSNTKVDKKVEPKSCDKTHTCPPCPAPELRGGPKVFLFPPKPKDTLYISRTPEVTCVVVDVSHEDPEVKFNWYVDGVEVHNAKTKPREEQYNSTYRVVSVLTVLHQDWLNGKEYKCKVSNKALPAPIEKTISKAKGQPREPQVYTLPPSRDELTKNQVSLTCLVKGFYPSDIAVEWESNGQPENNYKTTPPVLDSDGSFFLYSKLTVDKSRWQQGNVFSCSVMHEALDYHVTKKDLSLSP light: not shown
6,120 nM,IgG1-F1263 (antibody) heavy: QVQLQESGPGLVKPSETLSLTCAVSGHSISHDHAWSWVRQPPGEGLEWIGFISYSGITNYNPSLQGRVTISRDNSKNTLYLQMNSLRAEDTAVYYCARSLARTTAMDYWGEGTLVTVSSASTKGPSVFPLAPSSKSTSGGTAALGCLVKDYFPEPVTVSWNSGALTSGVHTFPAVLQSSGLYSLSSVVTVPSSSLGTQTYICNVNHKPSNTKVDKKVEPKSCDKTHTCPPCPAPELRGGPKVFLFPPKPKDTLYISRTPEVTCVVVDVSHEDPEVKFNWYVDGVEVHNAKTKPREEQYNSTYRVVSVLTVLHQDWLNGKEYKCKVSNKALPAPIEKTISKAKGQPREPQVYTLPPSRDELTKNQVSLTCLVKGFYPSDIAVEWESNGQPENNYKTTPPVLDSDGSFFLYSKLTVDKSRWQQGNVFSCSVMHEALHYHVTKKDLSLSP light: not shown
